Read-outs that look alike come from different tables or passages of the source. Values belong to the binder of their own block, whether it stands above or below them.
B5: MICB005-ECD-HISAvi (ligand)
chain: EPHSLRYNLMVLSQDGSVQSGFLAEGHLDGQPFLRYDRQKRRAKPQGQWAEDVLGAKTWDTETEDLTENGQDLRRTLTHIKDQKGGLHSLQEIRVCEIHEDSSTRGSRHFYYDGELFLSQNLETQESTVPQSSRAQTLAMNVTNFWKEDAMKTKTHYRAMQADCLQKLQRYLKSGVAIRRTVPPMVNVTCSEVSEGNITVTCRASSFYPRNITLTWRQDGVSLSHNTQQWGDVLPDGNGTYQTWVATRIRQGEEQRFTCYMEHSGNHGTHPVPSGKALVLQSQRTDHHHHHHGLNDIFEAQKIEWHE
notes: Two sources under one name in the two kinetic assays; also called MICB005 polypeptide
B6: MICA008-ECD-HISAvi (ligand)
chain: EPHSLRYNLTVLSWDGSVQSGFLAEVHLDGQPFLRYDRQKCRAKPQGQWAEDVLGNKTWDRETRDLTGNGKDLRMTLAHIKDQKEGLHSLQEIRVCEIHEDNSTRSSQHFYYDGELFLSQNLETEEWTVPQSSRAQTLAMNVRNFLKEDAMKTKTHYHAMHADCLQELRRYLESGVVLRRTVPPMVNVTRSEASEGNITVTCRASSFYPRNIILTWRQDGVSLSHDTQQWGDVLPDGNGTYQTWVATRICRGEEQRFTCYMEHSGNHSTHPVPSGKVLVLQSHWQHHHHHHGLNDIFEAQKIEWHE
notes: Two sources under one name in the two kinetic assays; also called MICA008 polypeptide
B7: MICA002-ECD-HISAvi (ligand)
chain: EPHSLRYNLTVLSGDGSVQSGFLAEVHLDGQPFLRCDRQKCRAKPQGQWAEDVLGNKTWDRETRDLTGNGKDLRMTLAHIKDQKEGLHSLQEIRVCEIHEDNSTRSSQHFYYDGELFLSQNLETEEWTMPQSSRAQTLAMNVRNFLKEDAMKTKTHYHAMHADCLQELRRYLKSGVVLRRTVPPMVNVTRSEASEGNITVTCRASGFYPWNITLSWRQDGVSLSHDTQQWGDVLPDGNGTYQTWVATRICQGEEQRFTCYMEHSGNHSTHPVPSGKVLVLQSHWQHHHHHHGLNDIFEAQKIEWHE
notes: also called MICA002 polypeptide

Experiments:
human MICA002 on cells [1] = molecular target: T1, human MICA002 on cells (human); assay: flow cytometry, CHO-MICA002 cells
T1 chain: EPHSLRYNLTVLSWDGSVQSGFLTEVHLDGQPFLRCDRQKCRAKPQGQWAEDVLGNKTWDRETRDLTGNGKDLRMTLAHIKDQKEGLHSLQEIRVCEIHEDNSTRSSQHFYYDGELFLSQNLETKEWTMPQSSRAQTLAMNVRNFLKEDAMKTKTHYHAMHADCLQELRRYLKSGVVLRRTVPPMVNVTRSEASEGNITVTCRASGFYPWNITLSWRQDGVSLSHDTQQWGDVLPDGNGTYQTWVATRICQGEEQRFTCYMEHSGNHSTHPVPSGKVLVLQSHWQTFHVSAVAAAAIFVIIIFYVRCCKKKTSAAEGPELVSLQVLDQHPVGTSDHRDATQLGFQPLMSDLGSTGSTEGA

human MICA002 on cells [2] = molecular target: T1, human MICA002 on cells; assay: flow cytometry, CHO-MICA002 cells
MICA004-ECD-HISAvi [3] = molecular target: T2, MICA004-ECD-HISAvi (human); assay: SPR (Carterra); antibody captured by anti-human Fc, monomeric ECD antigen injected
T2 construct: also called MICA004 polypeptide
T2 chain: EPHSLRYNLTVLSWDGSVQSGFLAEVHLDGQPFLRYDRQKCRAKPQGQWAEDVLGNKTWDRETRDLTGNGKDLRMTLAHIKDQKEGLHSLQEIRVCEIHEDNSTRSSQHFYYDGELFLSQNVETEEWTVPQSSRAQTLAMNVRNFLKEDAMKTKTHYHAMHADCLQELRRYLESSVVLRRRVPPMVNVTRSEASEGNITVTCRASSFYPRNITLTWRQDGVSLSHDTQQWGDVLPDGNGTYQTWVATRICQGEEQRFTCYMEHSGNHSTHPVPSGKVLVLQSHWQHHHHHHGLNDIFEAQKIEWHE
Procedure: (§1) The dissociation kinetics were monitored for approximately 10 minutes. The chip surface was regenerated between binding cycles with 10 mM glycine HCl, pH 1.7. Binding kinetics were analyzed using software supplied by the manufacturer.

MICA008-ECD-HISAvi [4] = molecular target: B6; assay: as above
Procedure: as §1

MICB005-ECD-HISAvi [5] = molecular target: B5; assay: as above
Procedure: as §1

MICA002-ECD-HISAvi [6] = molecular target: B7; assay: as above
Procedure: as §1

MICA004-ECD-HISAvi [7] = molecular target: T2, MICA004-ECD-HISAvi; assay: as above
Procedure: as §1

MICA008-ECD-HISAvi [8] = molecular target: B6; assay: as above
Procedure: as §1

MICB005-ECD-HISAvi [9] = molecular target: B5; assay: as above; remark: listed apart in the source
Procedure: as §1

MICA002-ECD-HISAvi [10] = molecular target: B7; assay: as above
Procedure: as §1

human MICA008 on cells [11] = molecular target: T3, human MICA008 on cells (human); assay: flow cytometry, HeLa cells (MICA008)
T3 construct: whole, on cells; also called CHO-MICA008; C1R-MICA008
T3 sequence (Q29983 whole entry): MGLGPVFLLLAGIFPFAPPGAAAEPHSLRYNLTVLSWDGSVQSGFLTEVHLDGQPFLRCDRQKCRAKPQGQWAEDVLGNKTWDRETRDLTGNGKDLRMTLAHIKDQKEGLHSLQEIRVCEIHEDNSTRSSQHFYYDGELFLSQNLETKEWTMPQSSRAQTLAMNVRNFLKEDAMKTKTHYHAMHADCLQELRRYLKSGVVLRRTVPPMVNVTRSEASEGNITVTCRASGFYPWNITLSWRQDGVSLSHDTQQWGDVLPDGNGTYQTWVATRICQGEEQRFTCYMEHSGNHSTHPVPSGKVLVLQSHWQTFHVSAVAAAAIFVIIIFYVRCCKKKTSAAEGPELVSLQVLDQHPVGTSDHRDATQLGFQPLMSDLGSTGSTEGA
Procedure: (§2) IgG1 is an isotype control (IgG). The antibody binding signals of APC (gMFI) to MICA/B were measured by flow cytometry.
(§3) After an incubation time of 30 minutes, the plate was centrifuged and cells were washed with PBS three times. […] After mixing for 30 minutes at room temperature, cells were washed with PBS twice. Fluorescent signal was detected and quantified by flow cytometry (Attune™ CytPix™, ThermoFisher) within the population of live cells (viability dye PI negative).

human MICA004 on cells = molecular target: T4, human MICA004 on cells (human); assay: flow cytometry, CHO-MICA004 cells
T4 construct: whole, on cells; also called CHO-MICA004; C1R-MICA004
T4 sequence (Q29983 whole entry): as above
Procedure: as §2, §3

human MICB005 on cells = molecular target: T5, human MICB005 on cells (human); assay: flow cytometry, CHO-MICB005 cells
T5 construct: whole, on cells; also called CHO-MICB005; C1R-MICB005
Procedure: as §2, §3

human MICA008 on cells [12] = molecular target: T3, human MICA008 on cells; assay: flow cytometry, CHO-MICA008 cells
Procedure: as §2, §3

MICA009Avi = molecular target: T6, MICA009Avi (human); assay: BLI (GatorPrime); antibody on anti-hIgG Fc probe, monomeric antigen in solution;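 also: binding kinetics of anti-MICA/B antibodies measured by biolayer interferometry, with dissociation followed for about 10 min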
T6 construct: extracellular domain
Procedure: (§4) The binding kinetics of the antibodies were also measured using the GatorPrime BLI (Biolayer Interferometry) system (Gator Bio, USA). Specifically, the anti-MICA/B antibodies were loaded with HFC (Anti-hIgG Fc, Gator Bio, Cat #: 160003). […] The dissociation kinetics were monitored for approximately 10 minutes. The probes were regenerated between binding cycles with Regeneration Buffer (Gator Bio, Cat #: 120012). Binding kinetics were analyzed using software supplied by the manufacturer.

MICA004-ECD-HISAvi [13] = molecular target: T2, MICA004-ECD-HISAvi; assay: as above
Procedure: as §4

MICA008-ECD-HISAvi [14] = molecular target: B6; assay: as above
Procedure: as §4

MICB005-ECD-HISAvi [15] = molecular target: B5; assay: as above
Procedure: as §4

[16] = molecular target: T7, Cynomolgus monkey MICA (cynoMICA) (Cynomolgus monkey (Macaca fascicularis)); assay: as above
T7 construct: also called cyno monkey MICA; cyno MIC protein
Procedure: as §4

MICA002-ECD-HISAvi [17] = molecular target: B7; assay: as above
Procedure: as §4

human MICA002 on cells [18] = molecular target: T1, human MICA002 on cells; assay: flow cytometry, CHO-MICA002 cells
Procedure: CHO-MICA002 cells were incubated with titrated anti-MICA/B antibodies and then APC-labeled anti-human Fc antibody. […] The antibody binding signals of APC (gMFI) to MICA/B were measured by flow cytometry.
as §3

NKG2D-His = molecular target: T8, NKG2D-His (UniProt P26718 78-216, limits assumed); assay: ELISA: NKG2D-His coated, MICA/B-ECD titrated, detection 1D5 + anti-hFc-HRP
T8 sequence (looked up): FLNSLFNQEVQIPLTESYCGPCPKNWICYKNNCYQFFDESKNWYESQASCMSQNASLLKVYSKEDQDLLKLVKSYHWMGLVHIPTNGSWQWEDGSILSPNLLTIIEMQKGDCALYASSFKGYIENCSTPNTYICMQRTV

B2: D2M001-003 (antibody, V domains shown)
VH: QVQLVQSGAEVKKPGSSVKVSCKASGYAFHDYLIEWVRQAPGQGLEWIGGINPGSGSTNYAQKFQGRATLTADKSTSTAYMELSSLRSEDTAVYYCARLDGNYVGYWGQGTLVTVSS
VL: DIQMTQSPSSLSASVGDRVTITCRASGNIHNYLAWYQQKPGKSPKLLVYHAKTLQSGVPSRFSGSGSGTDYTLTISSLQPEDVATYYCQHFWSTPRTFGGGTKVEIK
notes: only the CDRs are tied to the name in the text; copies: 2 + 2
EC50 (human MICA002 on cells [2]): 3.59 µg/mL

Binder: B5
EC50 (read off the curve) (NKG2D-His): ~0.02 µg/mL

Binder: B6
EC50 (read off the curve) (NKG2D-His): ~0.1 µg/mL

Binder: B7
EC50 (read off the curve) (NKG2D-His): ~0.2 µg/mL

Results, then the binder that gave them:

EC50 (human MICA002 on cells [1]): 0.6 µg/mL
B1: h36B3GS (antibody, V domains shown)
VH: QVQLVQSGAEVKKPGASVKVSCKASGYAFTKYNFYWVRQAPGQGLEWIGYIDPYFGGTVYNQKFKGKATLTVDKSTSTAYMELRSLRSDDTAVYYCATTDSYSLFTYWGQGTLVTVSS
VL: DIQMTQSPSSLSASVGDRVTITCRASQDISNYLNWYQQTPGKAVKLLIYYTSRLHSGVPSRFSGSGSGTDYTLTISSLQPEDIATYFCLQGNTLPFTFGQGTKLEIK
notes: humanized #36 variant; the text writes h36B3(GS); copies: 2 + 2

EC50 (human MICA002 on cells [2]): 4.2 µg/mL
B3: D2M001-004 (antibody, V domains shown)
VH: QVQLVQSGAEVKKPGSSVKVSCKASGYAFVDYLIEWVRQAPGQGLEWIGGVNPGSGSTNYAQKFQGRATLTADKSTSTAYMELSSLRSEDTAVYYCARLEGNYVGYWGQGTLVTVSS
VL: DIQMTQSPSSLSASVGDRVTITCRASGNIHNYLAWYQQKPGKSPKLLVYHAKTLQSGVPSRFSGSGSGTDYTLTISSLQPEDVATYYCQHFWSTPRTFGGGTKVEIK
notes: as for B2

Kd (MICA004-ECD-HISAvi [3]): 5.02 nM | Kd (MICA008-ECD-HISAvi [4]): 23.2 nM | Kd (MICB005-ECD-HISAvi [5]): 4.38 nM | Kd (MICA002-ECD-HISAvi [6]): 1.67 nM | Kd (MICA004-ECD-HISAvi [7]): 12.8 nM | Kd (MICA008-ECD-HISAvi [8]): 1 nM | Kd (MICB005-ECD-HISAvi [9]): 0.486 nM | Kd (MICA002-ECD-HISAvi [10]): 0.313 nM | EC50 (human MICA008 on cells [11]): 4.09 µg/mL | EC50 (human MICA004 on cells): 7.25 µg/mL | EC50 (human MICB005 on cells): 1.71 µg/mL | EC50 (human MICA008 on cells [12]): 2.08 µg/mL | Kd (MICA009Avi): 0.262 nM | Kd (MICA004-ECD-HISAvi [13]): 1.39 nM | Kd (MICA008-ECD-HISAvi [14]): 0.504 nM | Kd (MICB005-ECD-HISAvi [15]): 0.425 nM | Kd [16]: 13.9 nM | Kd (MICA002-ECD-HISAvi [17]): 0.0956 nM | EC50 (human MICA002 on cells [18]): 3.56 µg/mL
B4: 13A9 (antibody, human IgG1, kappa, V domains shown)
VH: QVQLQQSGAELVRPGTSVKVSCKASGYAFTNYLIEWVKQRPGQGLEWIGAINPGSGATNYNEKFKDKARLTADKSSNTAYLQFSSLTSDDSAVYFCARFLGNYFDNWGQGATLTVSS
VL: DIQMTQSPASLSASVGETVTITCRASGNIHSYLAWYQQKQGKSPQLLVYYAETLADGVPSRFSGRGSGTQYSLKINSLQPEDFGSYFCQQFWTTPYTFGGGTKVEIKR
